# Experimental data as given in paper PMC3769240.
# Target: Non-structural NS1 protein of human respiratory syncytial virus (hRSV) strain A (human respiratory syncytial virus strain A) (UniProt P0DOE9)
# Assay: dynamic light scattering; NS1SOs made by heat (10 minutes at 70°C in Tris 10 mM pH 8, DTT 1 mM); measured at 20°C
substance,measurement,value
Non-structural NS1 protein of human respiratory syncytial virus (hRSV) strain A (from UniProt P0DOE9 1-139) (natural protein),stoichiometry N (NS1 monomers per molecule of oligomer),149
